In US20130330346A1 (Novartis, published 2013):
Ends that are not written are not given here.

T1: Cynomolgus CXCR2 (cynomolgus, UniProt Q28519 3-353 (rhesus entry))
T1 chain: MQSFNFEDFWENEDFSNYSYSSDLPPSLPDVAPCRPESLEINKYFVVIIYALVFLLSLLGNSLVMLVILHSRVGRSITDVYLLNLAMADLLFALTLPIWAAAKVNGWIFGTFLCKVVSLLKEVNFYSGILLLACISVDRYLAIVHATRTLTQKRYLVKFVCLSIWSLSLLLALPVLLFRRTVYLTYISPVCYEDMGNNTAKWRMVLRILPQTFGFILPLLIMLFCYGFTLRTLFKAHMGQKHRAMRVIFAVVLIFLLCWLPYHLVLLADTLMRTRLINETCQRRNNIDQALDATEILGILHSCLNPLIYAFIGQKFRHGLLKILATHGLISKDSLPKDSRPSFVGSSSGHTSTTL

T2: Human CXCR2 (human, UniProt P25025 1-360)
T2 sequence: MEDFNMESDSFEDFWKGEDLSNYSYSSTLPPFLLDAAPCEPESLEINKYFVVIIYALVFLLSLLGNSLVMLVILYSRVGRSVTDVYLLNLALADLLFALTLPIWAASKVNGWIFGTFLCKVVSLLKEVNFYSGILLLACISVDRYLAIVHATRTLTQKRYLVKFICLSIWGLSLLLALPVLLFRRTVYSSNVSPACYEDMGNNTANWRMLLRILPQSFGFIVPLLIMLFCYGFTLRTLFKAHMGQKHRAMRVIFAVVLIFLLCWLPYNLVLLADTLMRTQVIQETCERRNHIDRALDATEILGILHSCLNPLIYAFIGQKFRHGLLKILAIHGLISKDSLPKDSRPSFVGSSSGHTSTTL

T3: Human 1to19 peptide (human)
T3 construct: First 19 N-terminal amino acids of human CXCR2, captured on neutravidin; also called human CXCR2 1 to19 peptide; 1-19 Nter peptide
T3 peptide: MEDFNMESDSFEDFWKGED-biotin


Key:
Cynomolgus CXCR2 [1] = biological target: T1, Cynomolgus CXCR2; test: cell-based or functional assay
Human CXCR2 [2] = biological target: T2, Human CXCR2; test: cell-based or functional assay
Cynomolgus CXCR2 [3] = biological target: T1, Cynomolgus CXCR2; test: cell-based or functional assay
Human CXCR2 [4] = biological target: T2, Human CXCR2; test: cell-based or functional assay; remark: listed apart in the source
Human CXCR2 [5] = biological target: T2, Human CXCR2; test: cell-based or functional assay; remark: listed apart in the source
Cynomolgus CXCR2 [6] = biological target: T1, Cynomolgus CXCR2; test: FACS competition vs 3 nM FMAT-Blue Gro-α
Experimental: (§1) Multivalent anti-CXCR2Nanobodies were titrated against 3 nM FMAT-Blue-labeled Gro-α in the FACS ligand competition assay on human and cynomolgus CXCR2 (Table 14). On human CXCR2, blocking potencies range between double digit nM and sub-nM whereas on cynomolgus CXCR2, they range between single and double digit nM.

Human CXCR2 [7] = biological target: T2, Human CXCR2; test: FACS competition vs 3 nM FMAT-Blue Gro-α
Experimental: as §1

Human 1to19 peptide = biological target: T3, Human 1to19 peptide; test: ELISA, periplasmic extract on biotinylated peptide
Experimental: In another setup, periplasmic extracts were analyzed for binding to human 1 to 19 peptide by ELISA. MaxiSorb plates (Nunc, 430341) were coated for two hours with neutravidin followed by one hour blocking (PBS, 1% casein). Then 100 nM biotinylated human 1 to 19 peptide was added to these plates for one hour (PBS, 0.1% casein, 0.05% tween20) followed by one hour incubation with 10-fold dilutions of periplasmic extracts. Unbound periplasmic extracts were washed away (PBS supplemented with 0.05% tween20) and bound Nanobodies were detected using mouse anti-myc (Roche, 11667149001) followed by rabbit anti-mouse-HRP conjugate (Dakocytomation, P0260). Table 8 summarizes the ratios of the binding signals of anti-CXCR2Nanobodies over an irrelevant control Nanobody.

Human CXCR2 [8] = biological target: T2, Human CXCR2; test: FACS, periplasmic extract vs FMAT Blue Gro-α
Experimental: Periplasmic extracts (as described above) were analyzed on FACS for competition with Gro-α in binding to human CXCR2. 2×10⁵ cells were incubated with a ½ dilution of periplasmic extracts in FACS buffer (PBS+10% fetal bovine serum (Sigma, F7524)) for 30 minutes at 4° C. Then, an equal volume of 6 nM of FMAT Blue-labeled human Gro-α in FACS buffer was added and incubation was continued for another 30 minutes at 4° C. in the dark. Cells were then washed three times in FACS buffer and finally resuspended in FACS buffer. Dead cells were stained with propidium iodide (Sigma, P4170). Samples were then analyzed on a FACSarray (BD Biosciences).

| Binder | Cynomologus WBSC IC50 (rhGROα) (Cynomolgus CXCR2 [1]) | Human Chemotaxis IC50 (rhGROα) (Human CXCR2 [2]) | Human WBSC IC50 (rhGROα) (Human CXCR2 [2]) | FLIPR % inhibition of max (Cynomolgus CXCR2 [3]) | FLIPR IC50 (GRO-α induced calcium release) (Cynomolgus CXCR2 [3]) | FLIPR % inhibition of max (Human CXCR2 [4]) | FLIPR IC50 (GRO-α induced calcium release) (Human CXCR2 [4]) | [35S]GTPγS % inhibition of max (GRO-α) (Human CXCR2 [5]) | [35S]GTPγS IC50 (GRO-α) (Human CXCR2 [5]) | % inhibition of max (Cynomolgus CXCR2 [6]) | IC50 (Cynomolgus CXCR2 [6]) | % inhibition of max (Human CXCR2 [7]) | IC50 (Human CXCR2 [7]) | ratio of binding signal relative to blank control (Human 1to19 peptide) | FACS Gro-α competition (% inhibition) (Human CXCR2 [8]) |
| --- | --- | --- | --- | --- | --- | --- | --- | --- | --- | --- | --- | --- | --- | --- | --- |
| CXCR20033 (bispecific antibody, Biparatopic: two VHH joined by a GlySer linker; also called 163E3-35GS-2B2; 163E3-2B2; not shown: C-terminal c-myc tag and His6 tag coded by pAX100) EVQLVESGGGLVQPGGSLRLSCVASGRIFSSNAMGWFRQAPGKEREFVAAITWRSGGSAYYADSAKGRFTISRDNAKNTVYLQMNSLKPEDTAVYYCAAGGSSWLSFPPDYWGQGTQVTVSSGGGGSGGGGSGGGGSGGGGSGGGGSGGGGSGGGGSEVQLVESGGELVQPGGSLRLSCAASGSILTINAMGWYRQAPGKQRELVVRRTRGGSTTYQDSVKGRFTISADIAKKTMYLQMNSLKPEDTAVYYCMLDDRGGVYWGQGTQVTVSS | 0.42 nM | 0.15 nM | 0.345 nM | 100% | 4.46 nM | 100% | 17.9 nM | 100% | 1.01 nM | 99% | 2.2 nM | 100% | 0.65 nM | – | – |
| 159B10 (VHH, Tested as periplasmic extract only; not shown: C-terminal c-myc tag and His6 tag coded by the vector) VHH: EVQLVESGGGLVQPGGSLRLSCAASGRTFSSLSMGWFRQAPGKERAFVAALTRNGGYRYYADSVKGRFTISRDVAKKTLYLQMNSLKPEDTAVYYCAADSLSGSDYLGTNLDYWGQGTQVTVSS | – | – | – | – | – | – | – | – | – | – | – | – | – | 0.8 ratio | 75.8% |
| 139H2 (VHH, Tested as periplasmic extract only; also called 139H02; not shown: C-terminal c-myc tag and His6 tag coded by the vector) VHH: EVQLVESGGGLVQAGGSLRLSCAASGRTFSNYAMGWFRQATGKEREFVAAINKSGGNTHYAGSVKGRFTISRDNAKNTVYLQMNSLKPRDTAVYYCAASRTNPKPDYWGQGTQVTVSS | – | – | – | – | – | – | – | – | – | – | – | – | – | 1.7 ratio | 50.5% |
| CXCR20028 (other, Biparatopic: two VHH joined by a GlySer linker; also called 97A9-35GS-54B12; 97A9-54B12; not shown: C-terminal c-myc tag and His6 tag coded by pAX100) EVQLVESGGGLVQPGGSLRLSCVASGSIVRINTMGWYRQTPGKQRELVADITSGGNINYIDAVKGRFTISRDNTKNTVYLQMNSLKPEDTAVYYCNAEIVVLVGVWTQRARTGNYWGQGTQVTVSSGGGGSGGGGSGGGGSGGGGSGGGGSGGGGSGGGGSEVQLVESGGGLVQAGGSLTLSCAVSGSTFRINTMGWYRRAPGKQRELVAARDRGGYINYVDSVKGRFTVSRDNAKPTMYLQMNSLKPEDTAVYYCHAGTQDRTGRNFDRWGQGTQVTVSS | 1.72 nM | – | 0.43 nM | 100% | 17 nM | 100% | 21.9 nM | 100% | 1.38 nM | 96% | 3.8 nM | 98.5% | 1.63 nM | – | – |
| 139D5 (VHH, Tested as periplasmic extract only; also called 139D05; not shown: C-terminal c-myc tag and His6 tag coded by the vector) VHH: EVKLVESGGGLVQAGGSLRLSCALSGRIGSINAMGWYRQVSGQQRELVAVSRSGGSTDIADSVKGRFTISRDNGKNTVYLQMDSLKPEDTAVYYCYAHTSSYSNWRVYNNDYWGQGTQVTVSS | – | – | – | – | – | – | – | – | – | – | – | – | – | 0.8 ratio | 56.8% |
